# Results: US12325866B2, “Systems and methods for growing cells in vitro” (Yissum Research Development Company of the Hebrew …, priority 2016, dated 2025)
# Assays:
# CSIF = assay: Serum-free medium development: sulforhodamine B stain and protein content after 72 hours; type: cell-based, chicken; conditions: supplement added to minimal serum-free medium; bFGF 10 ng/ml, EGF 5 ng/ml, PGE2 0.01 μM, GH 10 ng/ml
# Procedure: FIGS. 3A-F depict the development and identification of serum-free medium for CSIF propagation. Shown are sulforhodamine B stain (FIGS. 3A-E) and protein content quantification (FIG. 3F) following 72 hours of culture with 15% serum (“FBS”), minimal serum-free medium (MIN) alone (FIG. 3B) or with 10 ng/ml basic Fibroblast Growth Factor (bFGF, FIG. 3C), 5 ng/ml Epidermal Growth Factor (EGF, FIG. 3D), 0.01 μM Prostaglandin E2 (PGE2, FIG. 3E), or 10 ng/ml Growth Hormone. Serum-free medium (SFM) contained MIN medium supplemented with bFGF (10 ng/ml), EGF (5 ng/ml), and PGE2 ([…]).
# (§1) To develop a serum-free medium that supports the culture of CEF and CS IF, the present inventor formulated a minimal medium composed of DMEM/F12 supplemented with 0.1 μM dexamethasone, 10 μg/ml insulin, 5.5 μg/ml transferrin, and 5 ng/ml selenium (ITS), 12 μM linoleic and 12 μM oleic acids, and 2 mM of L-Analyl-L-Glutamine. Cells were plated in FBS containing medium, and transferred to minimal medium after overnight attachment. Basal medium was supplemented with growth factors and hormones showing that while heparin and T3 had little effect of CSIF growth (data not shown), the addition of basic Fibroblast Growth Factor (bFGF, 10 ng/ml) was essential (FIGS. 3C and 3F), showing 20±2 hours doubling time (data not shown).
# [1] = system: primary chicken embryonic fibroblasts (CEF); assay: Proliferation of primary CEF in serum-free media / with supplements; type: cell-based; conditions: serum-free medium, or minimal medium plus supplement (EGF 5 ng/ml, PGE2 0.01 μM, GH 10 ng/ml)
# Procedure: as §1, with “The CSIFs readily grow on tissue culture plastic in DMEM/F12 medium supplemented with 15% FBS, and 2 mM of […] (FIG. 2D). There are several serum-free medium formulations for the growth of human and mouse fibroblasts, including PCS-201-040 (ATCC) and […] To” for “To”, “[…].” for “L-Analyl-L-Glutamine.”
molecule,measurement,setting,value
"EGF: epidermal growth factor (protein, UniProt P01133 23-1207, looked up, Pro-epidermal growth factor) Pro-epidermal growth factor: PQHWSCPEGTLAGNGNSTCVGPAPFLIFSHGNSIFRIDTEGTNYEQLVVDAGVSVIMDFHYNEKRIYWVDLERQLLQRVFLNGSRQERVCNIEKNVSGMAINWINEEVIWSNQQEGIITVTDMKGNNSHILLSALKYPANVAVDPVERFIFWSSEVAGSLYRADLDGVGVKALLETSEKITAVSLDVLDKRLFWIQYNREGSNSLICSCDYDGGSVHISKHPTQHNLFAMSLFGDRIFYSTWKMKTIWIANKHTGKDMVRINLHSSFVPLGELKVVHPLAQPKAEDDTWEPEQKLCKLRKGNCSSTVCGQDLQSHLCMCAEGYALSRDRKYCEDVNECAFWNHGCTLGCKNTPGSYYCTCPVGFVLLPDGKRCHQLVSCPRNVSECSHDCVLTSEGPLCFCPEGSVLERDGKTCSGCSSPDNGGCSQLCVPLSPVSWECDCFPGYDLQLDEKSCAASGPQPFLLFANSQDIRHMHFDGTDYGTLLSQQMGMVYALDHDPVENKIYFAHTALKWIERANMDGSQRERLIEEGVDVPEGLAVDWIGRRFYWTDRGKSLIGRSDLNGKRSKIITKENISQPRGIAVHPMAKRLFWTDTGINPRIESSSLQGLGRLVIASSDLIWPSGITIDFLTDKLYWCDAKQSVIEMANLDGSKRRRLTQNDVGHPFAVAVFEDYVWFSDWAMPSVMRVNKRTGKDRVRLQGSMLKPSSLVVVHPLAKPGADPCLYQNGGCEHICKKRLGTAWCSCREGFMKASDGKTCLALDGHQLLAGGEVDLKNQVTPLDILSKTRVSEDNITESQHMLVAEIMVSDQDDCAPVGCSMYARCISEGEDATCQCLKGFAGDGKLCSDIDECEMGVPVCPPASSKCINTEGGYVCRCSEGYQGDGIHCLDIDECQLGEHSCGENASCTNTEGGYTCMCAGRLSEPGLICPDSTPPPHLREDDHHYSVRNSDSECPLSHDGYCLHDGVCMYIEALDKYACNCVVGYIGERCQYRDLKWWELRHAGHGQQQKVIVVAVCVVVLVMLLLLSLWGAHYYRTQKLLSKNPKNPYEESSRDVRSRRPADTEDGMSSCPQPWFVVIKEHQDLKNGGQPVAGEDGQAADGSMQPTSWRQEPQLCGMGTEQGCWIPVSSDKGSCPQVMERSFHMPSYGTQTLEGGVEKPHSLLSANPLWQQRALDPPHQMELTQ",Effect on CSIF growth / proliferation,CSIF,supported the proliferation
same,Proliferation of primary CEF,[1],supported the proliferation
